Assays:
[1] = biological target: T1, full-length human CHMP1B with a single cysteine mutation at position 2 (CHMP1B^S2C) (human) (UniProt Q7LBR1)
T1 sequence: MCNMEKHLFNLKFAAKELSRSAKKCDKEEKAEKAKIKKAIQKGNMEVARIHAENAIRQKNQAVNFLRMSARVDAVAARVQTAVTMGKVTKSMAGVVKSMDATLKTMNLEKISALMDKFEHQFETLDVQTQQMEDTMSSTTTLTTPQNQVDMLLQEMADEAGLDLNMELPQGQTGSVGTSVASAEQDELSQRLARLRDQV

full-length CHMP2A = biological target: T2, full-length CHMP2A (UniProt O43633)
T2 sequence: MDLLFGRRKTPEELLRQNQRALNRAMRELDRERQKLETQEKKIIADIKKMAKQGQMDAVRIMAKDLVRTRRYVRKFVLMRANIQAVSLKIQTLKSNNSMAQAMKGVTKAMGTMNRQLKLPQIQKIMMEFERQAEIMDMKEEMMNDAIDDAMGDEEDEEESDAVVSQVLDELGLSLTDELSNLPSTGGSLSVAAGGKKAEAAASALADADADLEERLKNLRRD

- rate of ATP hydrolysis by VPS4B (malachite green; 0.2 uM enzyme, 2 uM ESCRT-III subunit, 2 mM ATP, 10 min, 37 °C) (ATP/VPS4B·min) [1]: 3.4
- rate of ATP hydrolysis by VPS4B (malachite green; 0.2 uM enzyme, 2 uM ESCRT-III subunit, 2 mM ATP, 10 min, 37 °C) (ATP/VPS4B·min) (full-length CHMP2A): 12.7
B1: Human VPS4B with a single mutation at position 2 for maleimide fluorophore labeling (VPS4B^S2C) (enzyme)
chain: MCSTSPNLQKAIDLASKAAQEDKAGNYEEALQLYQHAVQYFLHVVKYEAQGDKAKQSIRAKCTEYLDRAEKLKEYLKNKEKKAQKPVKEGQPSPADEKGNDSDGEGESDDPEKKKLQNQLQGAIVIERPNVKWSDVAGLEGAKEALKEAVILPIKFPHLFTGKRTPWRGILLFGPPGTGKSYLAKAVATEANNSTFFSISSSDLVSKWLGESEKLVKNLFQLARENKPSIIFIDEIDSLCGSRSENESEAARRIKTEFLVQMQGVGVDNDGILVLGATNIPWVLDSAIRRRFEKRIYIPLPEPHARAAMFKLHLGTTQNSLTEADFRELGRKTDGYSGADISIIVRDALMQPVRKVQSATHFKKVRGPSRADPNHLVDDLLTPCSPGDPGAIEMTWMDVPGDKLLEPVVSMSDMLRSLSNTKPTVNEHDLLKLKKFTEDFGQEG
modifications: LD655 maleimide dye on the cysteine introduced at position 2 (labelled during the purification)
